Measurements reported in patent US20220218639A1.

Target: fibrin (Homo sapiens (Human)) (UniProt P02671)

δ-plasmin (enzyme)
percent clot digestion (clot weight before and after 2 hours of incubation, in serum, background-corrected): 7.17%
